Assay results from patent US20180086841A1.

Legend:
[1] = target: human CD27 (A59T) (human) (UniProt P26842); experiment: cell-based or functional assay
human CD27 (human) [2] = target: human CD27 (human) (UniProt P26842); experiment: cell-based or functional assay
[3] = target: Macaca mulatta CD27 (mmCD27) (Macaca mulatta (rhesus) / Macaca fascicularis (cynomolgus)); experiment: cell-based or functional assay
human CD27 (human) [4] = target: human CD27 (human) (UniProt P26842); experiment: flow cytometry MFI, CD4+ T cells in human peripheral blood, n=4
S63A = experiment: flow cytometry on CHO-K1 transfectants, right sub-column
H36A = experiment: as above
Q15A = experiment: as above
Q91A = experiment: as above
W13A = experiment: as above
E9A = experiment: as above
human CD27 (human) [5] = target: human CD27 (human) (UniProt P26842); experiment: competition cell ELISA on CHO-hCD27; competitor detected: mouse hCD27.15 at 1 µg/ml
R87A = experiment: flow cytometry on CHO-K1 transfectants, left sub-column, cell hatched (loss of binding)
W90A = experiment: as above
Sequence of W90A (receptor chain, as listed by the source W90A W90A limits assumed): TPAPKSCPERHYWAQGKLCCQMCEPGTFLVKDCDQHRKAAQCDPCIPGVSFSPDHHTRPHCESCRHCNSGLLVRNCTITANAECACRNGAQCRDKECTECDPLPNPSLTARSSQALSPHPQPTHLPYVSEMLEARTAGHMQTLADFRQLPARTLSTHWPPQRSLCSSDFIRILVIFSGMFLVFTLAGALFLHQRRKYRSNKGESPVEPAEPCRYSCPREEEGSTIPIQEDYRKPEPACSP

Sequence of 1F5-hIgG1 (antibody) (VH): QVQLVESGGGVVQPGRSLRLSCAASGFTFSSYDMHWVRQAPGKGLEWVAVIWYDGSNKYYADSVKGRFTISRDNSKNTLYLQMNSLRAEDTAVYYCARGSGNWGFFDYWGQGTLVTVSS
Sequence of 1F5-hIgG1 (antibody) (VL): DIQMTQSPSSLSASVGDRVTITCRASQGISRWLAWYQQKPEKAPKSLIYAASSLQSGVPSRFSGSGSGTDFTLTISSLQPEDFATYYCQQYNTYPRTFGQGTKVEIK
Sequence of H36A (receptor chain, as listed by the source H36A H36A limits assumed): as the sequence (receptor chain, as listed by the source W90A W90A limits assumed) above, with H36A, A90W counted along it
Sequence of R87A (receptor chain, as listed by the source R87A R87A limits assumed): as the sequence (receptor chain, as listed by the source W90A W90A limits assumed) above, with R87A, A90W counted along it
Sequence of Q91A (receptor chain, as listed by the source Q91A Q91A limits assumed): as the sequence (receptor chain, as listed by the source W90A W90A limits assumed) above, with A90W, Q91A counted along it
Sequence of W13A (receptor chain, as listed by the source W13A W13A limits assumed): as the sequence (receptor chain, as listed by the source W90A W90A limits assumed) above, with W13A, A90W counted along it
Sequence of Q15A (receptor chain, as listed by the source Q15A Q15A limits assumed): as the sequence (receptor chain, as listed by the source W90A W90A limits assumed) above, with Q15A, A90W counted along it
Sequence of E9A (receptor chain, as listed by the source limits assumed): as the sequence (receptor chain, as listed by the source W90A W90A limits assumed) above, with E9A, A90W counted along it
Sequence of S63A (receptor chain, as listed by the source S63A S63A limits assumed): as the sequence (receptor chain, as listed by the source W90A W90A limits assumed) above, with S63A, A90W counted along it

1F5-hIgG1 (antibody)
NF-κB-luciferase reporter assay, Emax [1]: 1.3 fold change
NF-κB-luciferase reporter assay, Emax (human CD27 (human) [2]): 1.48 fold change
NF-κB-luciferase reporter assay, Emax [3]: 1.33 fold change
EC50 (human CD27 (human) [4]): 1.54 nM
binding, WT hCD27 = 100 (GM FITC) (S63A): 121%
binding, WT hCD27 = 100 (GM FITC) (H36A): 80%
binding, WT hCD27 = 100 (GM FITC) (Q15A): 127%
binding, WT hCD27 = 100 (GM FITC) (Q91A): 115%
binding, WT hCD27 = 100 (GM FITC) (W13A): 82.8%
binding, WT hCD27 = 100 (GM FITC) (E9A): 120%
IC50 (read off the curve) (human CD27 (human) [5]): 4 nM
binding, WT hCD27 = 100 (GM FITC) (R87A): 40.8%
binding, WT hCD27 = 100 (GM FITC) (W90A): 42.5%
